According to publication PMC7380067:
Changes are numbered by the printed parent chain.

How the values were obtained:
[1] = molecular target: T1, AgrR-His6 (Cupriavidus metallidurans NA4) (UniProt Q1LMJ6); experiment: EMSA; conditions: 25 mM Na2HPO4, 150 mM NaCl, 0.1 mM EDTA, 2 mM MgCl2, 1 mM DTT, 10% glycerol, pH 7.0, 22 C, about 0.1 nM probe, 25 ug/ml sonicated salmon sperm DNA
T1 sequence: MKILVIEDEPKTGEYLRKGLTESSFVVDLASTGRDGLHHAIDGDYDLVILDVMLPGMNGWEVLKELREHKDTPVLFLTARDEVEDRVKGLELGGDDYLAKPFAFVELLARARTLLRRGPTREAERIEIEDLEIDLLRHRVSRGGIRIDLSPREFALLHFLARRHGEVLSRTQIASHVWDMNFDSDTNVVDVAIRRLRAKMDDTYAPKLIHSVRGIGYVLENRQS

[2] = molecular target: T1, AgrR-His6 (Cupriavidus metallidurans NA4); experiment: in gel (OP)2-Cu+ footprinting; conditions: 25 mM Na2HPO4, 150 mM NaCl, 0.1 mM EDTA, 2 mM MgCl2, 1 mM DTT, 10% glycerol, pH 7.0, 22 C, about 0.1 nM probe, 25 ug/ml sonicated salmon sperm DNA
[3] = molecular target: T1, AgrR-His6 (Cupriavidus metallidurans NA4); experiment: DNase I footprinting; conditions: 25 mM Na2HPO4, 150 mM NaCl, 0.1 mM EDTA, 2 mM MgCl2, 1 mM DTT, 10% glycerol, pH 7.0, 22 C, about 0.1 nM probe, 25 ug/ml sonicated salmon sperm DNA
[4] = molecular target: T2, MBP-AgrR D51A D51A (Cupriavidus metallidurans NA4) (UniProt Q1LMJ6); experiment: DNase I footprinting; conditions: 25 mM Na2HPO4, 150 mM NaCl, 0.1 mM EDTA, 2 mM MgCl2, 1 mM DTT, 10% glycerol, pH 7.0, 22 C, about 0.1 nM probe, 25 ug/ml sonicated salmon sperm DNA
T2 sequence: T1 sequence with D51A

[5] = molecular target: T2, MBP-AgrR D51A D51A (Cupriavidus metallidurans NA4); experiment: EMSA; conditions: 25 mM Na2HPO4, 150 mM NaCl, 0.1 mM EDTA, 2 mM MgCl2, 1 mM DTT, 10% glycerol, pH 7.0, 22 C, about 0.1 nM probe, 25 ug/ml sonicated salmon sperm DNA
[6] = molecular target: T3, MBP-AgrR D51E D51E (Cupriavidus metallidurans NA4) (UniProt Q1LMJ6); experiment: EMSA; conditions: 25 mM Na2HPO4, 150 mM NaCl, 0.1 mM EDTA, 2 mM MgCl2, 1 mM DTT, 10% glycerol, pH 7.0, 22 C, about 0.1 nM probe, 25 ug/ml sonicated salmon sperm DNA
T3 sequence: T1 sequence with D51E

[7] = molecular target: T2, MBP-AgrR D51A D51A (Cupriavidus metallidurans NA4); experiment: premodification binding interference (depurination, depyrimidination, DMS methylation); conditions: 25 mM Na2HPO4, 150 mM NaCl, 0.1 mM EDTA, 2 mM MgCl2, 1 mM DTT, 10% glycerol, pH 7.0, 22 C, about 0.1 nM probe, 25 ug/ml sonicated salmon sperm DNA
[8] = system: AgrR-His6 (Cupriavidus metallidurans NA4); experiment: EMSA; conditions: 25 ug/ml salmon sperm DNA; 25 mM Na2HPO4, 150 mM NaCl, 0.1 mM EDTA, 2 mM MgCl2, 1 mM DTT, 10% glycerol, pH 7.0, 22 C, about 0.1 nM probe, 25 ug/ml sonicated salmon sperm DNA
[9] = system: MBP-AgrR D51A (Cupriavidus metallidurans NA4); experiment: EMSA; conditions: 25 ug/ml salmon sperm DNA; 25 mM Na2HPO4, 150 mM NaCl, 0.1 mM EDTA, 2 mM MgCl2, 1 mM DTT, 10% glycerol, pH 7.0, 22 C, about 0.1 nM probe, 25 ug/ml sonicated salmon sperm DNA

In the case of “AGGACGTTATCAGGGGTGGTGCGAGCCATGTCAAATTCCATTGATTCTTGTTCCCTGTCATTGAAGACCCTTTAGTCGCTACAGGGTCAAGCGCCTGCCGAAAATCTTTGGAGCGGCGCAAACATGACATGAACGTAATGTTTGCCCGCTCGCTAAACGCCTATAATCGCC (double strand) [czcI2 promoter]”, the binding [1] is reported as “binds more weakly”.
For “ATGGGTTACGGGTTGTTCACGGCTTGCTGGAGAGTCTGATCGGTCGTTGCGCGACCTTGGAATGCAGTCTAGAGGGCGGGTCCCGACGCGAACATGACCCTTGAATGACATTGATGTCATTTGTCCGAGGCAATGCGATACGATTGCCGGACAGGGTGCCGACCGGACAATGAATTCGGCCTTGGCGACAAATCCACGCCAAACAAC (double strand) [prsQ2 promoter/operator]”, the Kd [1] was 1.6 µM and the binding [2] was “binds”.
“ATTGGAGCGGCGAGTATAGAAATGCCGACATTTCGTTTCGATTGCGGCGAGATTACAGCCGCATCGTTCCGGGCGCGGGCAGGCAGAAAAGGAGGGCGCGAGAGAAGGGCGAGAGAAGGGCGAGGGAAGGGCGGGACTACCCCGCGCCTTGGGTGCGGGGCCTGTGTCGGGTCAATCGACCCAGTTCACCTT (double strand) [ompC-like promoter]” was tested, and the binding [1] was “binds more weakly”.
“GTGTCCTCGTCAAACCAATGCACCCGGGCCCCGTGCCCGGAAAACGCCGCAAGTGTACGCCGCGGTCCGAACATGACGCGGACATTACCGGAATGTAATTTTTGGGTCATTAGGTGGTTACCGCGCCCTGACTACTCTGTGCTCGCTGCGCCATTTTGCTGGCGCGATTTCACAATGAGAA (double strand) [copA2-copR2 intergenic region]” was tested, and the Kd [1] was 2.1 µM, the binding [3] was “binds” and the binding [4] was “binds”. The binding [2] was “binds”.
With “GTTTTCATCCTCAGCTGCACGGGCTCACAGCTCAAACGATGCCGCCGATGATAACGGCGCAGGTTCGCCTATTGGATGACAAGACTGTAATCGTTTCGTCCCCGTTTGAAAGGGTGTTGCGTACATAGAATCGCCGCTAATTCTGGATGACCGGCGCCGACAGCGCCTGGAGTGAACCATGTGGATTGTGC (double strand) [agrR control region]” the Kd [1] was 16.5 µM, the Kd [5] was 1.6 µM and the binding [6] was “binds more weakly”. The binding [3] was “binds”, the binding [4] was “binds” and the binding [2] was “binds”. For the same substance, the binding [7] was “binds”.
“TAGAACTGCCTGTGTTGAGCAGTTGCAGCATTGTACTGCCTCTAACGGTTGCAAAATGGCTATATCAAGATGACATTCGTGCAATGTTCGCCAATTCGTGGCAAAGCTCCGCTAGTGTCTCGGTCTATATCCAGAACCTCGAATAATGGGCCGGTACCAA (double strand) [czcL-czcR2 intergenic region]” showed a Kd [1] of 26.5 µM.
“TGAAGCCGATCCATGACATAGTCTCCCTGTTCACCGGTGAATTTTTACACGATCCGGGTGATTTATTGTTGAAAGCACAACCAATCATTGTGGACGGCGCTATTTATTCATATCAGGGAAATGCCTAATATCGCACCATCTGATGCCGCATTGCAGCACCGGTCCTGGGACCACCGGCATCCTTGAATGTGAAAGAGGATTCCATCATG (double strand) [prsQ1 promoter]” was tested, and the binding [1] was “no binding”.
For agrR control region, the Kd [8] was 16.5 µM and the Kd [9] was 1.6 µM.
For copA2-copR2 intergenic region, the Kd [8] was 2.1 µM.
With czcL-czcR2 intergenic region the Kd [8] was 26.5 µM.
Work on prsQ2 promoter/operator yielded a Kd [8] of 1.6 µM.
